Reference: publication PMC3032639

Assays:
[1] = biological target: TraB N-terminal domain (TraBNT), membrane-extracted form (E. coli (plasmid pKM101)) (UniProt P41067); experiment: SAXS; beamline X33 (EMBL-Hamburg), buffer GFmb; TraBFL 3-13.5 mg/ml, TraBNT 1.3-8.2 mg/ml; molecular mass from forward scattering I(0), calibrated with BSA; self-association
[2] = biological target: TraB N-terminal domain (TraBNT), membrane-extracted form (E. coli (plasmid pKM101)) (UniProt P41067); experiment: SEC
[3] = biological target: TraB C-terminal domain (TraBCT) (E. coli (plasmid pKM101)); experiment: SAXS; beamline ID02 (ESRF), buffer GFsol, 20°C; TraBCT 2.1-8.2 mg/ml, LvhB4 2-8.9 mg/ml; molecular mass from forward scattering I(0), absolute calibration with water; self-association
[4] = biological target: TraB C-terminal domain (TraBCT) (E. coli (plasmid pKM101)); experiment: SEC
[5] = biological target: TraB full-length (TraBFL), the VirB4 homolog encoded by the E. coli pKM101 plasmid, membrane-extracted form (E. coli (plasmid pKM101)) (UniProt P41067); experiment: SAXS; beamline X33 (EMBL-Hamburg), buffer GFmb; TraBFL 3-13.5 mg/ml, TraBNT 1.3-8.2 mg/ml; molecular mass from forward scattering I(0), calibrated with BSA; self-association
[6] = biological target: TraB full-length (TraBFL), the VirB4 homolog encoded by the E. coli pKM101 plasmid, membrane-extracted form (E. coli (plasmid pKM101)) (UniProt P41067); experiment: SEC

## TraB N-terminal domain (TraBNT), membrane-extracted form (from UniProt P41067 1-442) (domain or fragment)
[1]
  stoichiometry N: 2
[2]
  stoichiometry N: 2

## TraB C-terminal domain (TraBCT) (domain or fragment)
[3]
  stoichiometry N: 2
[4]
  stoichiometry N: 2

## TraB full-length (TraBFL), the VirB4 homolog encoded by the E. coli pKM101 plasmid, membrane-extracted form (from UniProt P41067 1-475) (natural protein)
[5]
  stoichiometry N: 2
[6]
  stoichiometry N: 2
